Patent US20180022822A1 (MABIMMUNE DIAGNOSTICS, published 2018)

Tests used:
[1] = molecular target: T1, recombinant human Fibroblast Activation Protein (FAP) with N-terminus 6x histidine tag (human, UniProt Q12884 26-760); assay: direct ELISA: rFAP directly coated (FAP)
T1 construct: Bought protein; also called rFAP; rhFAP
T1 sequence: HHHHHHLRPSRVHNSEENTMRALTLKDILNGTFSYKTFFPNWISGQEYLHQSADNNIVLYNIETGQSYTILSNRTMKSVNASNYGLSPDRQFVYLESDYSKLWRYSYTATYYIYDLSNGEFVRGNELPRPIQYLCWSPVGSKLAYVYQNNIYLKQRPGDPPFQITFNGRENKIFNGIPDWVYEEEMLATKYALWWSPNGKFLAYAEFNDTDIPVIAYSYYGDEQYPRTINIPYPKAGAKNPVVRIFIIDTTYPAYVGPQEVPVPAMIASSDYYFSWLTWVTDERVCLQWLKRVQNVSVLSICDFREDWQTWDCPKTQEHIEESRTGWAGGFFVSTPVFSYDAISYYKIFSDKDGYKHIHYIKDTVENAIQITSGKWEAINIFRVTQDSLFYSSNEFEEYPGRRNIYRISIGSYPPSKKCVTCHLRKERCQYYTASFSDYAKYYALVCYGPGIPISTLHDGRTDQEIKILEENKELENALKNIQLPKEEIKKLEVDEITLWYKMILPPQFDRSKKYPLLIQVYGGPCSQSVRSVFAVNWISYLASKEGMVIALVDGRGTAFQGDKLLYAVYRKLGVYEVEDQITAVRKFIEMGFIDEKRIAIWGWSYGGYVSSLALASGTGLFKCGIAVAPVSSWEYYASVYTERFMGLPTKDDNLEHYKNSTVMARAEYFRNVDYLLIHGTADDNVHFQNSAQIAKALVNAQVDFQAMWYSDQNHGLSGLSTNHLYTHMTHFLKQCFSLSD

[2] = molecular target: T2, FAP peptide 521-539 with alanine substitution at position 529 (human); assay: alanine-mutated linear peptides spotted on nitrocellulose
T2 construct: also called spot 10
T2 peptide: KMILPPQFARSKKYPLLIQ
Description: (§1) Binding capacity of the antibodies was tested on these peptides spotted onto a nitrocellulose membrane (JPT Peptide Technologies, Berlin, Germany) and using HRP-conjugated donkey anti-human IgG secondary antibody (Jackson immunoResearch, Newmarket, UK) followed by detection of HRP activity (FIGS. 4A and C). In brief, epitope mapping was performed using scans of overlapping peptides. The entire sequences of FAP were synthesized as a total of 188 linear 15-mer peptides with an 11 amino acid overlap between individual peptides. Those peptides were spotted onto nitrocellulose membranes (JPT Peptide Technologies, Berlin, Germany). The membrane was activated for 5 min in methanol and washed in TBS for 10 min at RT. Non-specific binding sites were blocked for 2 h at RT with Roti®-Block (Carl Roth GmbH+Co. KG, Karlsruhe, Germany). Human antibodies (1 μg/ml) were incubated in Roti®-Block for 3 h at RT. Binding of primary antibody was determined using HRP-conjugated donkey anti-human IgG secondary antibody. Blots were developed and evaluated using ECL and ImageQuant 350 detection (GE Healthcare, Otelfingen, Switzerland).

[3] = molecular target: T3, FAP peptide 521-539 with alanine substitution at position 532 (human); assay: as above
T3 construct: also called spot 13
T3 peptide: KMILPPQFDRSAKYPLLIQ
Description: as §1

[4] = molecular target: T4, bovine serum albumin (BSA) (bovine, UniProt P02769 25-607); assay: direct ELISA: BSA coated directly on the plate
T4 construct: Negative control antigen in the ELISAs
T4 sequence (P02769 25-607 limits assumed): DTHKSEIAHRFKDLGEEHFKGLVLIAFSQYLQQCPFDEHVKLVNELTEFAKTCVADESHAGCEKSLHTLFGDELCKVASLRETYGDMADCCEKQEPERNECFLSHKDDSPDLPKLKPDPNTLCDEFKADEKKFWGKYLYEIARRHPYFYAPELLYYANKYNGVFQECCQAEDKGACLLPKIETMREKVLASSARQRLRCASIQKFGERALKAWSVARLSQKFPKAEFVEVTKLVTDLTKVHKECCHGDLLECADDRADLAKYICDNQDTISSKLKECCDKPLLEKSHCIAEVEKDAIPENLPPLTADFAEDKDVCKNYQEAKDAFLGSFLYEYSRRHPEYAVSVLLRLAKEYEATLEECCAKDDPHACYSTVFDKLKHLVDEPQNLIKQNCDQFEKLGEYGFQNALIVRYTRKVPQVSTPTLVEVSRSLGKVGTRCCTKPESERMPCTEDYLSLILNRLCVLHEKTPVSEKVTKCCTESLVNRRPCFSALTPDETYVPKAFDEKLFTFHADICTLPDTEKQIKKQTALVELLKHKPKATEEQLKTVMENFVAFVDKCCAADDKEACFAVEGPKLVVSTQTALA

[5] = molecular target: T1, recombinant human Fibroblast Activation …; assay: capture ELISA: His-tagged rFAP captured by coated anti-His antibody (sFAP)
Description: For the capture ELISA, the microplates were coated with mouse anti-His monoclonal antibody (Clontech) diluted to a concentration of 3 μg/ml in PBS, the plates were then blocked, FAP or BSA were diluted to a concentration of 2 μg/ml in PBS and added to the plates to be captured. The binding efficiency of the antibodies was then tested.
The EC₅₀ values were estimated by a non-linear regression using GraphPad Prism (San Diego, USA) software.

[6] = molecular target: T1, recombinant human Fibroblast Activation …; assay: direct ELISA: rFAP coated directly on the plate, antibody titrated, OD 450 nm
[7] = molecular target: T1, recombinant human Fibroblast Activation …; assay: ELISA: rhFAP held on the plate by an anti-tag antibody, HRP-labelled NI-206.82C2 titrated, TMB, OD 450 nm [continued) E]
Description: Active recombinant human enzymes evaluated in this assay include: Fibroblast Activation Protein (FAP; Sino Biologicals, 10464-H07H), Dipeptidyl Peptidase IV (DPPIV, BPS Bioscience 80040), Dipeptidyl Peptidase 8 (DPP8, BPS Bioscience 80080), Dipeptidyl Peptidase 9 (DPP9, BPS Bioscience 80080), and Prolyl Oligopeptidase/Prolyl Endopeptidase (POP/PREP, BPS Bioscience 80105). Each recombinant peptidase was expressed with a purification tag, and attached to the 96 well ELISA plate using either a mouse anti-Histidine antibody (CloneTech), or a mouse anti-Glutathione S-transferase (GST, Sino Biologicals, 111213-MM02) tag antibody. […] H-Gly-Pro-AMC (ATT Bioquest, 13450) was used to validate the presence and activity of DPP4, DPP9, and DPP8. Z-Gly-Pro-AMC (BaChem, 11145) was used to evaluate the activity of FAP and POP/PREP. […] Following a washing step, bound antibody was detected using 3,3′,5,5′-Tetramethylbenzidine (TMB) substrate.

EC50 [1]: 610 pM | binding result [2]: no binding | binding result [3]: no binding | binding result [4]: no binding | EC50 [5]: 14 pM | EC50 [6]: 608 pM | EC50 (read off the curve) [7]: ~50 pM
B1: NI-206.82C2 (antibody, V domains shown)
VH: QVQLQQSGPGLVKPSQTLSLTCAISGDSVSSNSVTWNWIRQSPSRGLEWLGRTYYRSKWYNDYAVSVKGRITINPDTSKNQFYLQLKSVTPEDAAVYYCARDSSILYGDYWGQGTLVTVSS
VL: QAVLTQPSSLSASPGASASLTCTLPSGINVGTYRIFWFQQKPGSPPQYLLSYKSDSDNHQGSGVPSRFSGSKDASANAGILLISGLQSEDEADYYCMIWHSSAWVFGGGTKLTVL
notes: Recombinantly expressed as complete human IgG1 with a lambda light chain; HRP-labelled in the homologue and sandwich ELISAs, Cy5-labelled in flow cytometry; also called HRP-labelled 82C2; Cy5 labelled 82C2
